In article doi:10.1101/2025.01.22.634229, “Computationally designed stem-epitope mimetics elicit broadly reactive antibodies” (bioRxiv, 2025):

Legend:
Conditions in all cases: both partners purified
FI6-focused_03 = target: T1, FI6-focused_03 (synthetic design on Bacteroides …); experiment: SPR
T1 construct: also called FI6-focused design_03; design_03 scaffold; source: E. coli BL21 (DE3), purified (Ni-NTA, SEC)
T1 chain: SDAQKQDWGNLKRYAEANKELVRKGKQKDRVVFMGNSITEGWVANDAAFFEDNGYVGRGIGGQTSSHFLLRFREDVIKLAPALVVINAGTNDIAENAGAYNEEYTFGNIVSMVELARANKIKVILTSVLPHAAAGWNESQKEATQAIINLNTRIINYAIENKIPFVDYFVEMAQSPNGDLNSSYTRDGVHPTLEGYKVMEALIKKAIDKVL

FI6-focused_04 = target: T2, FI6-focused_04 (synthetic design on Bacteroides …); experiment: SPR; Biacore 8K, HBS-EP+; ligand on a CM5 chip by amine coupling, named FI6 Fab in the legend of Figure 2A and 2D (the methods say IgG); monomeric design as analyte (62.5 nM to 7.8 nM for FI6-focused_04; 5 μM to 312.5 nM for stem-mimetic_01); 1:1 Langmuir fit
T2 construct: also called FI6-focused design_04; FI6-focused design; source: E. coli BL21 (DE3), purified (Ni-NTA, SEC)
T2 chain: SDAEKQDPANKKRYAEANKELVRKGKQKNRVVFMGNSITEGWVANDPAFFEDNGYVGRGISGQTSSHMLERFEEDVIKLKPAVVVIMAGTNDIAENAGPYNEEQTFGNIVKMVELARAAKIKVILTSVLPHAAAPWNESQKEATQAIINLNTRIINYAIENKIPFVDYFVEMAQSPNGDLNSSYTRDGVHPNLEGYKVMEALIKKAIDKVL

stem-mimetic_01 = target: T3, stem-mimetic_01 (synthetic design on Mus musculus ApoE …, chimera); experiment: as above
T3 construct: source: E. coli BL21 (DE3), purified (Ni-NTA, SEC)
T3 chain: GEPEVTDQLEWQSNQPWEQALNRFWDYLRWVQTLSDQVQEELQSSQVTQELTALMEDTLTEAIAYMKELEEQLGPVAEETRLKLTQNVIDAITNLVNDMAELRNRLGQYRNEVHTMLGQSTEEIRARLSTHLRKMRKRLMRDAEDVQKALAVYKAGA

B1: FI6 antibody (IgG) (antibody, V domains shown)
VH: QVQLVESGGGVVQPGRSLRLSCAASGFTFSTYAMHWVRQAPGKGLEWVAVISYDANYKYYADSVKGRFTISRDNSKNTLYLQMNSLRAEDTAVYYCAKDSQLRSLLYFEWLSQGYFDYWGQGTLVTVSS
VL: DIVMTQSPDSLAVSLGERATINCKSSQSVTFNYKNYLAWYQQKPGQPPKLLIYWASTRESGVPDRFSGSGSGTDFTLTISSLQAEDVAVYYCQQHYRTPPTFGQGTVEIK
notes: also called FI6 Ab; source: Expi293, purified (protein A, SEC)
Kd (FI6-focused_03): 0.26 nM

B2: FI6 Fab (Fab, V domains shown)
VH: QVQLVESGGGVVQPGRSLRLSCAASGFTFSTYAMHWVRQAPGKGLEWVAVISYDANYKYYADSVKGRFTISRDNSKNTLYLQMNSLRAEDTAVYYCAKDSQLRSLLYFEWLSQGYFDYWGQGTLVTVSS
VL: DIVMTQSPDSLAVSLGERATINCKSSQSVTFNYKNYLAWYQQKPGQPPKLLIYWASTRESGVPDRFSGSGSGTDFTLTISSLQAEDVAVYYCQQHYRTPPTFGQGTVEIK
Kd (FI6-focused_04): 6 nM
Kd (stem-mimetic_01): 44 nM
